Consider 20 sequences from the supplement of paper PMC9170038.

The data set deals with MS2 coat protein. The experiment in a line: apparent KD of MS2 coat protein; designed switch direction (-1 OFF switch, 1 ON switch): 1; higher = weaker reporter binding. In outline: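 Apparent KD, taken as the median over clusters for each design, was obtained by curve-fitting normalised cluster fluorescence. Designed RNA switches had been transcribed on Illumina chips by stalled E. coli RNA polymerase and titrated with SNAP-549-labelled MS2 coat protein, doubling from 0.7 or 1.5 nM to 3 µM.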

The mark [1] stands for this setting: input ligand: microRNA oligo, concentration not stated.
Where [2] appears, read: Eterna round: R95, input ligand: FMN 200 uM.
Setting [3] is: Eterna round: R95, input ligand: microRNA oligo, concentration not stated.
[4] abbreviates: Eterna round: R95, input ligand: none.

With “GGUAGGUUACUACCAAACAUGAGGAUCACCCAUGUAAGUGGGAAGGAUAUGGUACCGUUUCGGUACCAGAAGGUCCAUAUAGUA [JL Fiskers NG3ss - 2 mod 11] (Eterna round: R96, puzzle: Same State NG 3)”, the “apparent KD of MS2 coat protein” value (input ligand: FMN 200 uM) amounted to 232 nM, the “apparent KD of MS2 coat protein” value under setting [1] is 658 nM and the “apparent KD of MS2 coat protein” value (input ligand: none) amounted to 1530 nM.

Consider “GGUAGGUUACUACCAAACAUGAGGAUCACCCAUGUAAGUGGGAAGGAUAUGGUACCUAAAAGGUACCAGAAGGUCCAAUUAAUU [Mat - Same State NG 3 - JL Mod - D98] (Eterna round: R96, puzzle: Same State NG 3)”, for which the “apparent KD of MS2 coat protein” value (input ligand: FMN 200 uM) worked out at 188 nM, the “apparent KD of MS2 coat protein” value under setting [1] is 436 nM and the “apparent KD of MS2 coat protein” value (input ligand: none) turned out to be 584 nM.

Regarding “GGUAUCGGCACAGGAUAUGCUAUCCUUUGGGUAGCAGAAGGGUGGAACAUGAGGAUCACCCAUGUGGUGCCAGGGCGUGAGCCC [JL SSNG1 1.88] (Eterna round: R96, puzzle: Same State NG 1)”, the “apparent KD of MS2 coat protein” value worked out at 586 nM (input ligand: FMN 200 uM), 125 nM under setting [1] and 909 nM (input ligand: none).

In the case of “GGUAUGGACACAGGAUAUGCUUACGAAACGUAAGCAGAAGGGUGAACAUGAGGAUCACCCAUGUACGUACCAGGGCGUGAGCCC [JL SSNG1 1.76] (Eterna round: R96, puzzle: Same State NG 1)”, the “apparent KD of MS2 coat protein” value reads like this: (input ligand: FMN 200 uM) 440 nM; under setting [1], 157 nM; (input ligand: none) 92.4 nM.

For the sequence “GGUCCAGCCUGAGCUGGACAAAAGCAUGUACAUGAGGAUCACCCAUGUUCAUGUACAAGCUUUUUGCUCGUCUUAUC [salish99_208a_r3_056] (puzzle: Sensor for hsa-mir-208a)”, the “apparent KD of MS2 coat protein” value by setting is: under setting [2], 431 nM; under setting [3], 14.6 nM; under setting [4], 664 nM.

In the case of “GGUCCAGCCUGAGCUGGACCGAAGCAUGUACAUGAGGAUCACCCAUGUCAUGUACAGGCUUUUUGCUCGUCUUAUUG [JL-shm-2.12 JL Mod] (puzzle: Sensor for hsa-mir-208a)”, the “apparent KD of MS2 coat protein” value runs as follows: under setting [2], 685 nM; under setting [3], 15.7 nM; under setting [4], 694 nM.

For the sequence “GGUCGGACUCACAUGAGGAUCACCCAUGUUCCGGAAACGGGACAGGAUAUCUGUCCGAAAAGGUCAGAGAAGGGUCUACCGACC [Fiskers NG3ss - 54] (Eterna round: R96, puzzle: Same State NG 3)”, the “apparent KD of MS2 coat protein” value (input ligand: FMN 200 uM) came out at 353 nM, the “apparent KD of MS2 coat protein” value under setting [1] stood at 126 nM and the “apparent KD of MS2 coat protein” value (input ligand: none) was 289 nM.

Regarding “GGUCGGACUCACAUGAGGAUCACCCAUGUUGCGGAAACGCCACAGGAUAUCUGUCCGAAAAGGUCAGAGAAGGGUGAACCGACC [Fiskers NG3ss - 63] (Eterna round: R96, puzzle: Same State NG 3)”, the “apparent KD of MS2 coat protein” value by setting is: (input ligand: FMN 200 uM) 1460 nM; under setting [1], 35.8 nM; (input ligand: none) 214 nM.

Turning to “GGUGCCAAUAAAGCCUACAUGAGGAUCACCCAUGUAUGUAGGCAGGAUAUCGUUUGCUUUGCAAACGAGAAGGGCCGAGGCACC [JL SSNG3 1.19] (Eterna round: R96, puzzle: Same State NG 3)”, the “apparent KD of MS2 coat protein” value runs as follows: (input ligand: FMN 200 uM) 20.4 nM; under setting [1], 25.1 nM; (input ligand: none) 42.7 nM.

Regarding “GUAAAACAUGAGGAUCACCCAUGUAAUAAUAUGGGAGGAUAUCAGAUUUAAUUUAAUUUAUGAGAAGGCCUAAAGU [Mat - Same State 1 - Mod of Eli - D63] (puzzle: Same State 1)”, the “apparent KD of MS2 coat protein” value runs as follows: under setting [2], 94.4 nM; under setting [3], 16.4 nM; under setting [4], 628 nM.

As for “GUAAAACAUGAGGAUCACCCAUGUCAACAAAGUCGAGGAUAUGGGCAAAUAAAAUAAGAACCAGAAGGCGAAUAAC [salish99_SS1_r3_010] (puzzle: Same State 1)”, the “apparent KD of MS2 coat protein” value is 45.8 nM under setting [2], 377 nM under setting [3] and 371 nM under setting [4].

“GUAAAGAAAUAAGGAUAUUGAAUACAUAUGUUUAACAUGAGGAUCACCCAUGUGGGUUGCGGUAUCGAGAAGGUAUAAUAAAAG [Mat - Same State NG 2 - JL mod - D8] (Eterna round: R96, puzzle: Same State NG 2)”: the “apparent KD of MS2 coat protein” value was determined as 162 nM (input ligand: FMN 200 uM), 171 nM under setting [1] and 168 nM (input ligand: none).

With “GUAACAUGACGAGGAUAUGGAACAUGAGGAUCACCCAUGUAUGUUCCAUAACGCGAAUGACGAAUCCAGAAGGCGUCGUGAAUG [Mat - Same State NG 2 - JL mod - D29] (Eterna round: R96, puzzle: Same State NG 2)”, the “apparent KD of MS2 coat protein” value is, setting by setting: (input ligand: FMN 200 uM) 41.7 nM; under setting [1], 124 nM; (input ligand: none) 220 nM.

With “GUAAUACAUGAGGAUCACCCAUGUCAAUGUAGUCGAGGAUAUGGGUAGCUAUGUGGCUUACUAGAAGGCGACGAGC [Same State 1 - Mod of Vinnie Teenbexe v.4] (puzzle: Same State 1)”, the “apparent KD of MS2 coat protein” value by setting is: under setting [2], 90.3 nM; under setting [3], 157 nM; under setting [4], 251 nM.

“GUACAGAUCACAGGAUAUCACGUCGAUUAGACGUGAGAAGGGUGAUCACACAUGAAUAUUAAUACAUGAGGAUCACCCAUGUAC [SSNG1/16-A2] (Eterna round: R96, puzzle: Same State NG 1)”: the “apparent KD of MS2 coat protein” value by setting is: (input ligand: FMN 200 uM) 65.6 nM; under setting [1], 22.5 nM; (input ligand: none) 30.6 nM.

For “GUAGCAUACCGAGGAUAUUCAUAACAUGAGGAUCACCCAUGUAUUAGGCCACAUUAGUGGCCUUGGGAGAAGGCGGAAUGCUAC [Xeonanis - 20 Mod45] (Eterna round: R96, puzzle: Same State NG 2)”, the “apparent KD of MS2 coat protein” value is, setting by setting: (input ligand: FMN 200 uM) 12.1 nM; under setting [1], 11.9 nM; (input ligand: none) 16.9 nM.

For the sequence “GUAGCAUACCGAGGAUAUUCAUAACAUGAGGAUCACCCAUGUUAGGCCAGCAUUAGCUGGCCUUGGGAGAAGGCGGAAUGCUAC [Xeonanis - 20 Mod52] (Eterna round: R96, puzzle: Same State NG 2)”, the “apparent KD of MS2 coat protein” value is 17.5 nM (input ligand: FMN 200 uM), 14.5 nM under setting [1] and 22.2 nM (input ligand: none).

With “GUAGCAUACCGAGGAUAUUCAUAAUACAUGAGGAUCACCCAUGUUAAUAAUAGGCGAAAGCCUUGGGAGAAGGCGGAAUGCUAC [Xeonanis - 20 Mod69] (Eterna round: R96, puzzle: Same State NG 2)”, the “apparent KD of MS2 coat protein” value turned out to be 11.4 nM (input ligand: FMN 200 uM), 9.05 nM under setting [1] and 16.2 nM (input ligand: none).

With “GUCCAACAUGAGGAUCACCCAUGUCGGGCGUGCACAGGAUAUCGCGCCGGGAAAGCCCAGCGAGAAGGGUGAUCGA [Atveinla] (puzzle: Same State 1)”, the “apparent KD of MS2 coat protein” value reads like this: under setting [2], 197 nM; under setting [3], 57.8 nM; under setting [4], 50.9 nM.

Turning to “GUCGGACCGGAAGGAUAUAACGACUGGUGUUUUCACAUGAGGAUCACCCAUGUAUCUCUACCGUGUUAGAAGGUUCGGAGGAAU [Eternabot solution 49] (Eterna round: R96, puzzle: Same State NG 2)”, the “apparent KD of MS2 coat protein” value (input ligand: FMN 200 uM) stood at 14.8 nM, the “apparent KD of MS2 coat protein” value under setting [1] turned out to be 15.2 nM and the “apparent KD of MS2 coat protein” value (input ligand: none) came out at 20.4 nM.
